Data: paper PMC10144703, “Molecular Mechanism of Sirtuin 1 Inhibition by Human Immunodeficiency Virus 1 Tat Protein” (Life, 2023)
Where no end group is shown, it is not given here.

Molecular target: human mini-Sirt1 (aa 183-505-(GGGS)2-641-665) (human) (UniProt Q96EB6)
Sequence (Q96EB6 other isoform, or with tags, fused parts or gaps): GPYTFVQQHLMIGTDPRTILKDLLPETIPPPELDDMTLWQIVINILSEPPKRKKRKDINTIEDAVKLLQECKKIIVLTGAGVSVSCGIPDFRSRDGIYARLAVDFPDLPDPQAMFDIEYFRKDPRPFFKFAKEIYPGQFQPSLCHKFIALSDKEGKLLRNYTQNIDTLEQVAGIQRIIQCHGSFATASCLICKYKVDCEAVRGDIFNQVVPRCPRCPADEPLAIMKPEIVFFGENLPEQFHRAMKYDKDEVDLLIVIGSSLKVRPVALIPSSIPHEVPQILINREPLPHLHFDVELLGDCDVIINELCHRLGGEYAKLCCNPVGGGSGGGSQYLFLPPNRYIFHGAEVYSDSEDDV

SYGRKKRRQ (not fully specified) [Tat-46–54 (non-acetylated)]
inhibition of mini-Sirt1 in the FdL assay; IC50: 131 µM
